Data as given in US20230333112 (published 2023).

Target: T1, human NKp30 (BKM0179) (human, UniProt O14931)
T1 chain: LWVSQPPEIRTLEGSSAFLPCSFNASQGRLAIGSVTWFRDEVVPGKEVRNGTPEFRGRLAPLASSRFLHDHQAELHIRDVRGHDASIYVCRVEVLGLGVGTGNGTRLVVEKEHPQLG
Test: SPR

Kd: 1.48 nM
B1: BJM1078 (BJM0407 parental) (antibody, V domains shown)
VH: EIQLLESGGGLVQPGGSLRLSCAVSGFSITTTGYHWNWVRQAPGKGLEWVGYIYSSGSTSYNPSLKSRFTISRDTSKNTFYLQMNSLRAEDTAVYYCARGDWHYFDYWGQGTMVTVSS
VL: QSVTTQPPSVSGAPGQRVTISCSGEKLSDKYVHWYQQLPGTAPKMLIYENDRRPSGVPDRFSGSNSGNSASLAITGLQAEDEADYFCQFWDSTNSAVFGGGTQLTVL
